Entries after “also recorded” stand apart in the source; their conditions may differ. Each block holds one molecule with its values, some of them ahead of it.
Experiments:
[1] = molecular target: T1, BMP4 (Homo sapiens, UniProt P12644); assay: BMP4-induced C2C12 cell differentiation assay, peptide preincubated with BMP4; assay type: cell-based; details: peptide 5 μm preincubated with BMP4 100 ng/mL; C2C12 cells, ALP activity
T1 sequence (P12644 293-408): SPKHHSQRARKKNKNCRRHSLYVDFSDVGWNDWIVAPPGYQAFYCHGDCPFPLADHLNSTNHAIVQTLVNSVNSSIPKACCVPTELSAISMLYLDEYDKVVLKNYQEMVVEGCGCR
Protocol: (§1) To test whether exogenous expression of Gremlin can inhibit the activity of exogenously expressed BMP4, the activity of BMP4 secreted into the CM was measured by its effect on mouse myoblast C2C12 cell differentiation into osteoblasts. C2C12 cells were grown in 96-well plate until 90% confluence. Agents (100 ng/ml BMP4 or equivalent amounts of concentrated conditioned medium) were then added into the culture medium (Dulbecco's modified Eagle's medium with 5% fetal bovine serum) and the cells were cultured for 3 days. The cells were then lysed with 0.1% Triton X-100, and the alkaline phosphatase (ALP) activity in the cell lysate was quantified by adding substrate p-nitrophenyl phosphate and measuring absorbance at A405. Triplicate measurements were preformed for every sample. Conditioned media from cells transfected with control, Myc-BMP4, GRE-HA, or Myc-BMP4 and GRE-HA were assayed for BMP4 activity.
The function of the 30 amino acid Gremlin motif in mediating interaction between Gremlin and BMP4 and BMP4 inhibitor activity was assayed by the BMP4-induced C2C12 cell differentiation assay. A linear peptide corresponding to the mapped amino acid sequence (145-174) was synthesized by Genscript (Scotch Plains, N.J.).

[2] = molecular target: T2, Myc-BMP4 (Mus musculus, UniProt P21275, INS296EQKLISEEDL); assay: Co-immunoprecipitation of Myc-BMP4 with HA-tagged Gremlin proteins co-expressed in COS-1 cells (anti-HA IP, anti-Myc Western blot); assay type: binding; details: co-transfected COS-1 cells
T2 construct: expressed in transfected cells; host or cells: COS-1 cells
T2 sequence (P21275 with tags, fused parts or gaps limits assumed): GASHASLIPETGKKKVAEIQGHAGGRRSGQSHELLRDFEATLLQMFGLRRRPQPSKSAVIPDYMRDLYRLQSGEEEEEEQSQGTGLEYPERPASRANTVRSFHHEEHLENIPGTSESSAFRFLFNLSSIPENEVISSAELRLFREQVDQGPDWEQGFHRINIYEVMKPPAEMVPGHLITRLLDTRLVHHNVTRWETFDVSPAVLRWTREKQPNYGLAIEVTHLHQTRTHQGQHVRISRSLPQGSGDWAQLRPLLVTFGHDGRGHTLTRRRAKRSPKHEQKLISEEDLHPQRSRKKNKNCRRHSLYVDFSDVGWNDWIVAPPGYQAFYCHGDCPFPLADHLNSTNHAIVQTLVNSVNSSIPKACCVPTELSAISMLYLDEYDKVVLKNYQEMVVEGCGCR
Protocol: (§2) To test whether exogenous BMP4 and Gremlin physically interact intracellularly, Myc-BMP4 and GRE-HA were co-transfected into COS-1 cells using Lipofectamine Plus (Invitrogen). Transfected cells were first cultured in medium containing 10% fetal calf serum for 20 hours and then cultured in serum-free conditioned medium (CM) for an additional 48 hours, and experiments were repeated at least three times.
To determine the specificity of BMP4-Gremlin binding and the molecular motif of Gremlin that is responsible for the intermolecular interaction, two truncated Gremlin molecules, GRE-DAN-HA and GRE-NF-HA, were generated with truncation of the NH2-terminal fragment (NF) or the carboxyl-terminal DAN domain (DAN), respectively, as diagramed in FIG. 6A (amino acid positions are in reference to SEQ ID NO:4). The two truncated Gremlin molecules were co-transfected with Myc-BMP4 into COS-1 cells, and immunoprecipitation was performed with anti-HA antibodies.
Partial cDNA of mouse Mucin-2, which encodes a Mucin-2 protein fragment of 114 amino acids on the carboxyl terminus (PQNQ . . . LGRK, GenBank™ accession number XP—620590) was generated by high fidelity RT-PCR (Pfu, Stratagene) and verified by DNA sequencing. An HA epitope was also added to the carboxyl terminus of Mucin-2 by inverted PCR. A variety of Gremlin-Mucin-2 chimeric cDNA constructs were created by inverted PCR in combination with restricted digestion and ligation of PCR products. The Gremlin-Mucin-2 chimeras generated are as diagrammed in FIG. 7B. These HA-epitope tagged Gremline-Mucin-2 chimera proteins were co-expressed with Myc-BMP in COS-1 cells by transient transfection. The BMP4 binding activities and inhibitory activities were evaluated by immunoprecipitation and BMP4-stimulated C2C12 cell differentiation assay as described in Examples 3 and 4. The results for the Gremlin-Mucin-2 chimeras are seen in FIGS. 8A and 8B.

[3] = molecular target: Myc-tagged mouse BMP4 (Myc-BMP4) (mouse) (UniProt P21275); assay: cell-based or functional assay
[4] = molecular target: T3, BMP4 (Mus musculus, UniProt P21275); assay: BMP4-stimulated C2C12 cell differentiation assay (alkaline phosphatase activity) with conditioned medium of transfected COS-1 cells; assay type: cell-based; details: C2C12 ALP activity
T3 construct: mature but no precursor BMP4 was detected in the concentrated CM; expressed in transfected cells; host or cells: COS-1 cells (conditioned medium applied to C2C12 cells)
T3 sequence (P21275 with tags, fused parts or gaps): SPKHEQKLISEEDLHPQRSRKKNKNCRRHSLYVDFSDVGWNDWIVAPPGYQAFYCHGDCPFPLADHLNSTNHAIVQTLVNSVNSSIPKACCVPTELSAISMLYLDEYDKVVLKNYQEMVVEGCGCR
Protocol: as §2, §1
CM collected separately from cells transfected with Myc-BMP4 or GRE-HA was mixed and preincubated for 1 hour before adding to C2C12 cells (1). COS-1 cells were transfected separately with Myc-BMP4 or GRE-HA, trypsinized and co-cultured during CM collection (2).

B1: GRE-DAN-HA: truncated HA-tagged Gremlin with the NH2-terminal fragment deleted (protein)
chain: CKTQPLKQTIHEEGCNSRTIINRFCYGQCNSFYIPRHIRKEEGSFQSCSFCKPKKFTTMMVTLNCPELQPPTKKKRVTRVKQCRCISIDLD
modifications: left off: small tags and cut ends
notes: truncated HA-tagged Gremlin with the NH2-terminal fragment deleted
- BMP4 binding (co-immunoprecipitation of Myc-BMP4) [2]: retained its BMP4 binding activity

B2: GRE-NF-HA: truncated HA-tagged Gremlin with the carboxyl-terminal DAN domain deleted (protein)
chain: KKKGSQGAIPPPDKAQHNDSEQTQSPPQPGSRTRGRGQGRGTAMPGEEVLESSQEALHVTERKYLKRDW
modifications: left off: small tags and cut ends
notes: truncated HA-tagged Gremlin with the carboxyl-terminal DAN domain deleted
- BMP4 binding (co-immunoprecipitation of Myc-BMP4) [2]: completely abolished

B3: HA-tagged mouse Gremlin (GRE-HA) (protein, not shown: small tags and cut ends)
chain: KKKGSQGAIPPPDKAQHNDSEQTQSPPQPGSRTRGRGQGRGTAMPGEEVLESSQEALHVTERKYLKRDWCKTQPLKQTIHEEGCNSRTIINRFCYGQCNSFYIPRHIRKEEGSFQSCSFCKPKKFTTMMVTLNCPELQPPTKKKRVTRVKQCRCISIDLD
- inhibition of BMP4 activity (alkaline phosphatase activity, C2C12 cell differentiation assay); CM of Myc-BMP4 cells mixed with an equal amount of CM of GRE-HA cells [3]: 20%
- inhibition of BMP4 activity (alkaline phosphatase activity, C2C12 cell differentiation assay); CM of cells co-transfected with Myc-BMP4 and GRE-HA [3]: 86%
- inhibition of BMP4 activity (alkaline phosphatase activity, C2C12 cell differentiation assay); CM of co-cultured cells transfected separately with Myc-BMP4 or GRE-HA [3]: 55%

More lines, main results first:

- inhibition of BMP4 activities [1]: 56±10%
Molecule: PKKFTTMMVTLNCPELQPPTKKKRVTRVKQ (listed as Homo sapiens) [linear peptide]

- BMP4 inhibitory effect ([4]; CM from COS-1 cells transfected separately with Myc-BMP4 or GRE-HA and co-cultured during CM collection): 55±5%
- BMP4 activity inhibited ([4]; CM of Myc-BMP4 transfected cells plus equal amount of CM from GRE-HA transfected cells, mixed and preincubated 1 hour): 20±9%
- BMP4 activity inhibited ([4]; cells co-transfected with Myc-BMP4 and GRE-HA, p<0.05): 86±4%
B4: GRE-HA: HA-epitope tagged mouse Gremlin, full length, expressed by transfection (protein)
chain: KKKGSQGAIPPPDKAQHNDSEQTQSPPQPGSRTRGRGQGRGTAMPGEEVLESSQEALHVTERKYLKRDWCKTQPLKQTIHEEGCNSRTIINRFCYGQCNSFYIPRHIRKEEGSFQSCSFCKPKKFTTMMVTLNCPELQPPTKKKRVTRVKQCRCISIDLD
modifications: left off: small tags and cut ends
- BMP4 binding (co-immunoprecipitation of Myc-BMP4) [2]: Myc-BMP4 precursor was found in the cell lysate; also recorded: retained its BMP4 binding activity
